Substitutions are numbered along the chain they refer to. Values belong to the binder of their own block, whether it stands above or below them.
Experiments:
mouse TREM1 [1] = target: T1, mouse TREM1 (mouse, UniProt Q9JKE2 21-230); assay: flow cytometry cross-blocking on HEK293 cells over-expressing mouse TREM-1
T1 construct: whole, on cells; also called mTREM1
T1 sequence (looked up): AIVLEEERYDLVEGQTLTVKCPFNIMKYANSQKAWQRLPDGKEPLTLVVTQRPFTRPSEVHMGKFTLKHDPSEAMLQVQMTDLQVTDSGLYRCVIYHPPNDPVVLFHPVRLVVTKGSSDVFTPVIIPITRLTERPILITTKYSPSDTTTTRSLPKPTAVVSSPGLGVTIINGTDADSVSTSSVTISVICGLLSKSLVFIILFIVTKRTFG
Experimental: 100,000 HEK293 cells over-expressing mouse TREM-1 were plated in 96 well plates and dead cells were stained with Zombie Near Infrared (Biolegend, San Diego, Calif.). These cells were subsequently incubated with the indicated unconjugated anti-mouse TREM-1 antibodies at saturating concentrations for 15 mins on ice. Following incubation with these antibodies, cells were then stained with the indicated Alexa Fluor 647 conjugated antibodies for 30 mins on ice. The ability of conjugated antibodies to bind in the presence of unconjugated antibodies was assessed by Alexa 647 signal measured by flow cytometry (BD Fortessa X-14, BD Biosciences, San Jose, Calif.).
The sequences denote the linear amino acid stretches that comprise each domain and the numbering is according to UniProt sequence analysis and 3D modelling of mouse TREM1.

mouse TREM1 [2] = target: T1, mouse TREM1; assay: flow cytometry on HEK293 cells over-expressing mouse TREM-1
Experimental: 100,000 HEK 293 parental or over-expressing mouse TREM-1 were plated in 96 well plates and dead cells were stained with Zombie Near Infrared (Biolegend, San Diego, Calif.). […] These primary unconjugated antibodies were detected with Alexa Fluor 647 conjugated anti-mouse Fcγ secondary antibodies (Jackson Immunoresearch, West Grove, Pa.). Alexa Fluor 647 signal was measured by flow cytometry (BD Fortessa X-14, BD Biosciences, San Jose, Calif.). EC50 values were calculated by curve fitting signal generated from antibodies binding to over-expressing cells over background fluorescence generated from HEK293 parental cells in Graphpad Prism (Graphpad Software, La Jolla, Calif.).

mouse TREM1 [3] = target: T1, mouse TREM1; assay: in vivo receptor occupancy, flow cytometry of tumor cells
Experimental: CT26 (colon adenocarcinoma), LL/2 (lung adenocarcinoma), MC38 (colon adenocarcinoma), and RENCA (renal cell carcinoma) were harvested using StemPro Accutase Dissociation reagent (Gibco Corporation), washed in PBS and subcutaneously injected to female C57BL/6 (Jackson Laboratories) or BALB/c (Taconic Biosciences) mice at a dose between 8×10⁵-1×10⁶ cells in the right ventral flank. […] Antibody treatments were 15 mg/kg for both arms and mice were treated twice at the indicated time points. 48 hr after the second dose, mice were euthanized and the tumor and blood were harvested for immune population analysis and expression of TREM1. Immune population and expression analyses were performed by flow cytometry (BD Fortessa X-14, BD Biosciences).

cynomolgus TREM1 = target: T2, cynomolgus TREM1 (cynomolgus, UniProt A0A2K5VHG8 21-233); assay: flow cytometry on HEK293 cells over-expressing cynomolgus TREM-1
T2 construct: whole, on cells; also called cTREM1
T2 sequence: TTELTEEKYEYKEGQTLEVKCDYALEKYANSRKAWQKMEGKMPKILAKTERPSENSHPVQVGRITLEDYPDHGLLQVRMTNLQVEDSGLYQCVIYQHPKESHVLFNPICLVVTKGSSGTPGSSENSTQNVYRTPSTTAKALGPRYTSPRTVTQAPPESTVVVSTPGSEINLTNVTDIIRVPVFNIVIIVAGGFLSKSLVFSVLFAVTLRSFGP
Experimental: Titrations of indicated unconjugated antibodies were incubated with these cells within a range of 0 ug/ml to 30 ug/ml in a 1:4 or 1:5 dilution range across 8 points. […] EC50 values were calculated by curve fitting signal generated from antibodies binding to over-expressing cells over background fluorescence generated from HEK293 parental cells in Graphpad Prism (Graphpad Software).

B1: Pi-9067L (antibody, mouse IgG2a, kappa, V domains shown)
VH: EVQLVESGGGLVQPGGSLRLSCAASGFDIYSYSIHWVRQAPGKGLEWVAYIYPSYGYTSYADSVKGRFTISADTSKNTAYLQMNSLRAEDTAVYYCARGAVAALDYWGQGTLVTVSS
VL: DIQMTQSPSSLSASVGDRVTITCRASQSVSSAVAWYQQKPGKAPKLLIYSASSLYSGVPSRFSGSRSGTDFTLTISSLQPEDFATYYCQQYGVSGYSLITFGQGTKVEIKR
notes: Anti-mouse TREM1; also called WT Pi-9067L; fucosylated PI-9067L
binding result (mouse TREM1 [1]): binds

B2: afucosylated Pi-9067L (antibody, mouse IgG2a, kappa, V domains shown)
VH: B1 VH
VL: B1 VL
modifications: afucosylated Fc glycan
notes: Same polypeptides as Pi-9067L, afucosylated; also called Afuc-Pi-9067L; Afuc-PI-9067L
binding result (mouse TREM1 [2]): binds

B3: Pi-9069L (antibody, mouse IgG2a, kappa, V domains shown)
VH: EVQLVESGGGLVQPGGSLRLSCAASGFDLYSSYIHWVRQAPGKGLEWVASIYPSYGYTYYADSVKGRFTISADTSKNTAYLQMNSLRAEDTAVYYCARSHSYVHGAMDYWGQGTLVTVSS
VL: B1 VL with G92W, V93W, S94V, G95P, Y96A, S97A, L98P
binding result (mouse TREM1 [3]): binds

B6: Pi-8421 (antibody, V domains shown)
VH: EVQLVESGGGLVQPGGSLRLSCAASGFDISYSSIHWVRQAPGKGLEWVASIYSSYGSTYYADSVKGRFTISADTSKNTAYLQMNSLRAEDTAVYYCARYYYSHAGWYVSGYWPAIDYWGQGTLVTVSS
VL: DIQMTQSPSSLSASVGDRVTITCRASQSVSSAVAWYQQKPGKAPKLLIYSASSLYSGVPSRFSGSRSGTDFTLTISSLQPEDFATYYCQQSSYSLITFGQGTKVEIK
binding result (cynomolgus TREM1): no binding (tested: titrated within 0 ug/ml to 30 ug/ml)

Results, then the binder that gave them:

binding result (mouse TREM1 [1]): binds
B4: Pi-4928 (antibody, mouse IgG2a, kappa, V domains shown)
VH: QVQLKESGPGLVQPSQTLSLTCTVSGFSITSSNVYWFRQPPGKGLEWMGNIWGDGSTDYNSSLKSRLTLSRDTSKNQVFLKINSLQSEDTATYFCTRSWEYYFDHWGQGVVVTVSS
VL: DIVLTQSPALAVSPGQRATLSCRASQSVTLSNVNLMNWYQQKPGQQPKLLIYHASNLASGIPTRFSGSGSGTDFTLTIDPVQADDIAAYYCQQSGESPRTFGGGTKVELKR
notes: Anti-mouse TREM1 mAb

binding result (mouse TREM1 [2]): binds
B5: afucosylated Pi-4928 (antibody, mouse IgG2a, kappa, V domains shown)
VH: B4 VH
VL: B4 VL
modifications: afucosylated Fc glycan

binding result (mouse TREM1 [1]): binds
B7: Pi-9772 (antibody, mouse IgG2a, kappa, V domains shown)
VH: EVQLVESGGGLVQPGGSLRLSCAASGFDLSYSSMHWVRQAPGKGLEWVAYISPYSGYTSYADSVKGRFTISADTSKNTAYLQMNSLRAEDTAVYYCARHGSWSYGFSSGFDYWGQGTLVTVSS
VL: DIQMTQSPSSLSASVGDRVTITCRASQSVSSAVAWYQQKPGKAPKLLIYSASSLYSGVPSRFSGSRSGTDFTLTISSLQPEDFATYYCQQYAYYYPITFGQGTKVEIKR
notes: Anti-mouse TREM1 mAb

binding result (mouse TREM1 [2]): binds
B8: afucosylated Pi-9772 (antibody, mouse IgG2a, kappa, V domains shown)
VH: B7 VH
VL: B7 VL
modifications: afucosylated Fc glycan
